Target: T1, ΔHNH-Cas9 (ΔHNH-4; T769-K918 replaced by GGSGGS) (Streptococcus pyogenes)
T1 chain: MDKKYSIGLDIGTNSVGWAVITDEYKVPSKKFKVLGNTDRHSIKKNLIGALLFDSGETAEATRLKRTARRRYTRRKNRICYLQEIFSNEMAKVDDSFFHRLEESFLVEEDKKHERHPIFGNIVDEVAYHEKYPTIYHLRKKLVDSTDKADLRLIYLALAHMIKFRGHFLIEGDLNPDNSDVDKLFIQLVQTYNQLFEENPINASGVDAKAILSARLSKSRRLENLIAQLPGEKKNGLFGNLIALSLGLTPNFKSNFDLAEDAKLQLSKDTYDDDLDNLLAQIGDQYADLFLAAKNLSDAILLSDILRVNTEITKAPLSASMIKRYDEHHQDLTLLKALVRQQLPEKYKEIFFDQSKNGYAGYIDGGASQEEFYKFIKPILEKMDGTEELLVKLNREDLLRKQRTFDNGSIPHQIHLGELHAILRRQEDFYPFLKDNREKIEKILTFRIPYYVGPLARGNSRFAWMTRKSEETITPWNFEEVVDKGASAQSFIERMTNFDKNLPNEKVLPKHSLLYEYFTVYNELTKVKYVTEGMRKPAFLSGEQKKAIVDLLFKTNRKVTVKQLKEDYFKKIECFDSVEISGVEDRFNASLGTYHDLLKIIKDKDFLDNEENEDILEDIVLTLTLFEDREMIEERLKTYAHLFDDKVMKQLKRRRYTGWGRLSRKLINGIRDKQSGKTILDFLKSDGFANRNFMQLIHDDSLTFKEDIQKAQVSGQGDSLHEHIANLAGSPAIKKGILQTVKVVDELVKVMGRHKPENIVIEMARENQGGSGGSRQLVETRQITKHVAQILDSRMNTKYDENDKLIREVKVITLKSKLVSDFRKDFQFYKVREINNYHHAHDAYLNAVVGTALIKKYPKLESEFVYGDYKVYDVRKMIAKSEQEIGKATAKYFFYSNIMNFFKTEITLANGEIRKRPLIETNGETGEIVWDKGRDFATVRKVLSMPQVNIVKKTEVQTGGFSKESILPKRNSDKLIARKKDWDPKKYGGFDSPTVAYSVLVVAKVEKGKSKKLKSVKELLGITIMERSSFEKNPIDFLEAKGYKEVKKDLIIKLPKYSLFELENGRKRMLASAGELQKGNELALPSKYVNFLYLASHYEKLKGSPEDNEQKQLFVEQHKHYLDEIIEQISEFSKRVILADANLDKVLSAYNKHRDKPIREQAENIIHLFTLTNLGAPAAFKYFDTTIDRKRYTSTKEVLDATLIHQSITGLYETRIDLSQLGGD
Test: EMSA; PAM TGG; 5 mM MgCl2, 100 mM KCl, pH 7.5, 50 ug/mL heparin, room temperature, 100 nM sgRNA
Details: tags: N-terminal His10-MBP, TEV protease treated; label: 5'-radiolabel; single-guide RNA
Description: Binding reactions (15 μL) were performed at room temperature in Reaction Buffer supplemented with 50 μg/mL heparin using <0.1 nM radiolabeled dsDNA substrates. Reactions were resolved by 8% native polyacrylamide gel electrophoresis (0.5×TBE, 5 mM MgCl₂) for 1.5-2 hr at 4° C. in a running buffer containing 0.5×TBE and 5 mM MgCl₂. Reactions were visualized by phosphorimaging (GE Healthcare).
Reactions were resolved by 8% native polyacrylamide gel electrophoresis. […] Solid lines represent fits from binding isotherms.

B1: sgRNA (bacteriophage target) ; 55-bp DNA substrate (ssRNA ; dsDNA)
RNA: GACGCAUAAAGAUGAGACGCGUUUUAGAGCUAUGCUGUUUUGGAAACAAAACAGCAUAGCAAGUUAAAAUAAGGCUAGUCCGUUAUCAACUUGAAAAAGUGGCACCGAGUCGGUGCUUUUUUUGGAUC
DNA 1: AGCAGAAATCTCTGCTGACGCATAAAGATGAGACGCTGGAGTACAAACGTCAGCT
DNA 2: AGCTGACGTTTGTACTCCAGCGTCTCATCTTTATGCGTCAGCAGAGATTTCTGCT
Binder B1 has a Kd of 1.2 nM.

Source: patent US20180298360, “CAS9 VARIANTS AND METHODS OF USE THEREOF” (The Regents of the University of California, published 2018)
